In test [1] the target is EGFR on the surface of tumor cells (human) (UniProt P00533).
The target is the same in test [2]. Kind of test: flow cytometry on A431 cells preincubated with 2 ug EGF, 2 uM bio-P190: avidin complex, 4° C. (A flow cytometer gives signals particle by particle.)

Positions of bridges follow the written chain, without caps; N, C: chain ends. No end group written: not given here. PEG = not defined here

B1: P190-DOXIL (peptide)
peptide: DPCTWEVWGRECLQ
modifications: disulfide 3-12 (inferred); not fully specified (N-terminus); also: inserted into DOXIL liposomes (doxorubicin)
In test [1], B1 had an IC50 D4 of 120 µg/mL and an IC50 D6 of 35 µg/mL.

In test [2], DPCTWEVWGRECLQ-{PEG-biotin} (disulfide 3-12 (inferred); reading uncertain) [Biotinylated-PEGylated P190] had a staining over background of 20 fold.

Values taken from patent US8278415B2.
